{
  "source": "paper PMC5986150",
  "key": {"[1]": {"target": "12-ADA CaM (Drosophila melanogaster calmodulin engineered with an N-terminal N-myristoyl transferase recognition peptide and labelled with 12-azidododecanoic acid) (Drosophila melanogaster) (UniProt P62152)", "experiment": "pull-down; 12-ADA CaM conjugated to DBCO-Sepharose directly from clarified lysate, resin washed; clarified E. coli lysate with CaN (25 mM Tris pH 7.5, 3 mM MgCl2, 100 mM NaCl, 2 mM CaCl2) incubated with the resin at 4°C for 45 minutes - 1 hr; washes with 2 mM CaCl2, one with 1 M NaCl; eluted with 1 mM EGTA; semi-quantitative SDS-PAGE with Coomassie"}, "[2]": {"target": "12-ADA CaM (Drosophila melanogaster calmodulin engineered with an N-terminal N-myristoyl transferase recognition peptide and labelled with 12-azidododecanoic acid) (Drosophila melanogaster) (UniProt P62152)", "experiment": "pull-down; purified 12-ADA CaM (1, 2 or 5 mg mL^-1) conjugated to DBCO-Sepharose; clarified E. coli lysate with CaN (25 mM Tris pH 7.5, 3 mM MgCl2, 100 mM NaCl, 2 mM CaCl2) incubated with the resin at 4°C for 45 minutes - 1 hr; washes with 2 mM CaCl2, one with 1 M NaCl; eluted with 1 mM EGTA; semi-quantitative SDS-PAGE with Coomassie"}, "[3]": {"target": "Calmodulin of Calmodulin Sepharose 4B (GE Healthcare Life Sciences) (UniProt P62157)", "experiment": "pull-down; commercial Calmodulin Sepharose 4B (GE); clarified E. coli lysate with CaN (2 mM CaCl2) incubated with the resin at 4°C, in parallel with the 12-ADA CaM resins; eluted with 1 mM EGTA; semi-quantitative SDS-PAGE with Coomassie"}},
  "data": [
    {"substance": "Human calcineurin (CaN), α and β subunits (from UniProt Q08209 1-521; P63098 1-170) (complex)", "values": [
      {"measurement": "avg. amount of CaN purified from the resin", "setting": "[1]", "value": 0.6, "unit": "mg"},
      {"measurement": "avg. amount of CaN purified from the resin", "setting": "[2]", "value": 0.1, "unit": "mg"},
      {"measurement": "avg. amount of CaN purified from the resin", "setting": "[3]", "value": 0.2, "unit": "mg"}
    ]}
  ]
}
